In one test the target is U1A RRM1 (1-126) (UniProt P09012 1-126). The test can be described thus: NMR titration.
The target in a further test is GB1-U1A (1-282) (UniProt P09012 1-282). The test can be described thus: NMR titration.
GB1-U1A (1-282), sequence (P09012 whole entry): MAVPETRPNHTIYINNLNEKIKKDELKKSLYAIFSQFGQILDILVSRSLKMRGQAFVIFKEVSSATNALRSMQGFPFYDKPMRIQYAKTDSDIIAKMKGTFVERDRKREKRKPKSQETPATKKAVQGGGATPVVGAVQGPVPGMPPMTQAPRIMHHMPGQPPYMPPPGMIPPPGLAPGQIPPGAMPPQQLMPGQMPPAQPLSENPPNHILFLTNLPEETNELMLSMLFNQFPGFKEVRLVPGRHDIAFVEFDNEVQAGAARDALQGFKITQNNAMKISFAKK

U1A RRM1 (1-126), sequence (P09012 1-126): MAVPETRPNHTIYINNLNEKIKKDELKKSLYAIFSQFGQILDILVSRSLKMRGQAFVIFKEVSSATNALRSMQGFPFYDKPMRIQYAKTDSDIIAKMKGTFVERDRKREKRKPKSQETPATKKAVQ

B1: GB1-hSAM68 (C2) (domain or fragment, human, UniProt Q07666 365-443, looked up)
chain: TYEEYGYDDTYAEQSYEGYEGYYSQSQGDSEYYDYGHGEVQDSYEAYGQDDWNGTRPSLKAPPARPVKGAYREHPYGRY
On to B1, for which the binding result with U1A RRM1 (1-126) and with GB1-U1A (1-282) was “binds” each time.

Values taken from PMC6486544 (Nucleic Acids Research, 2019).
